{"source": "patent US20120065146A1", "about": "(published 2012)", "binders": {"B1": {"name": "PLHS-F2Pmab-A (peptide)", "peptide": "PLHS[F2Pmab]A", "modifications": "also: in pull-downs N-terminal Cys-(CH2)6 linker cross-linked to beads", "notes": "also called C-(CH2)6-PLHS-F2Pmab-A"}, "B2": {"name": "PLHA-F2Pmab-A (peptide)", "peptide": "PLHA[F2Pmab]A", "modifications": "also: in pull-downs N-terminal Cys-(CH2)6 linker cross-linked to beads", "notes": "also called F2Pmab(S77A); C-(CH2)6-PLHA-F2Pmab-A"}, "B3": {"name": "PLHS-Pmab (peptide)", "peptide": "PLHS[Abu(3R-Me,4-PO3H2)]", "modifications": "also: N-acetylated in soluble form, N-terminal Cys-(CH2)6 linker in pull-down form", "notes": "also called C-(CH2)6-PLHS-Pmab"}, "B4": {"name": "PLHA-Pmab (peptide)", "peptide": "PLHA[Abu(3R-Me,4-PO3H2)]", "modifications": "also: N-acetylated in soluble form", "notes": "also called Pmab(S77A); C-(CH2)6-PLHA-Pmab"}, "B5": {"name": "PLHSpT (peptide)", "peptide": "PLHS[pT]", "modifications": "also: Ac and C-terminal amide in soluble form, N-terminal Cys-(CH2)6 linker in pull-down form", "notes": "Derived from the Thr78 region of PBIP1; also called Ac-PLHSpT-NH2; C-(CH2)6-PLHSpT"}, "B6": {"name": "MQSpTPL (peptide)", "peptide": "MQS[pT]PL", "modifications": "also: in pull-downs N-terminal Cys-(CH2)6 linker cross-linked to beads", "notes": "also called synthetic optimal peptide"}}, "key": {"HA-EGFP-Plk1 [1]": {"molecular_target": "T1, HA-EGFP-Plk1 (UniProt P53350 1-603)", "T1 construct": "also called full-length Plk1 (ELISA); not shown: HA tag and EGFP", "test": "ELISA competition (FIG. 16A)"}, "[2]": {"molecular_target": "T2, Plk1 (endogenous, in mitotic HeLa cell lysates) (UniProt P53350 2-603)", "T2 construct": "Endogenous full-length protein in total lysate of nocodazole-arrested HeLa cells; also called polo-like kinase 1", "T2 sequence (P53350 2-603 limits assumed)": "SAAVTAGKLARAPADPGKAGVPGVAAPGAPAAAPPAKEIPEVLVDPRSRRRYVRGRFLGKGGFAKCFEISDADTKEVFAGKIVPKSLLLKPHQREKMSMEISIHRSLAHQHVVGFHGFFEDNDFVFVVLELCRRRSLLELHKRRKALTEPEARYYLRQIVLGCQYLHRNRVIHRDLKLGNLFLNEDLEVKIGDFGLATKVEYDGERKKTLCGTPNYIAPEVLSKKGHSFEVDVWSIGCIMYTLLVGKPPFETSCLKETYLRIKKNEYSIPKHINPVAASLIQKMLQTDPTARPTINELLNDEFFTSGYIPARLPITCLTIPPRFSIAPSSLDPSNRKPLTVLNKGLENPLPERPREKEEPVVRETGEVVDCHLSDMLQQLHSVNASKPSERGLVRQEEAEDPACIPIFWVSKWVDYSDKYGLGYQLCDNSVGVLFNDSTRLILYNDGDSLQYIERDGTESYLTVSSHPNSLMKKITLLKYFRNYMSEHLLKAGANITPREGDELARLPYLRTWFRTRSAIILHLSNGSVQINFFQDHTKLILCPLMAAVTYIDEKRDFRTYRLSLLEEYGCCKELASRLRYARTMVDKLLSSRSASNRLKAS", "test": "pull-down from mitotic HeLa lysate with bead-immobilised peptide (FIG. 13A)"}, "HA-EGFP-Plk1 [3]": {"molecular_target": "T1, HA-EGFP-Plk1", "test": "ELISA competition on immobilised biotinylated p-T78 9-mer (FIG. 16A)"}, "Flag-Plk3(K52R) [4]": {"molecular_target": "T3, Flag-Plk3(K52R) (UniProt Q9H4B4 40-646, K52R)", "T3 construct": "A gift construct; K52 may be counted on another entry than the printed human one; not shown: Flag tag", "T3 sequence (Q9H4B4 40-646 K91R)": "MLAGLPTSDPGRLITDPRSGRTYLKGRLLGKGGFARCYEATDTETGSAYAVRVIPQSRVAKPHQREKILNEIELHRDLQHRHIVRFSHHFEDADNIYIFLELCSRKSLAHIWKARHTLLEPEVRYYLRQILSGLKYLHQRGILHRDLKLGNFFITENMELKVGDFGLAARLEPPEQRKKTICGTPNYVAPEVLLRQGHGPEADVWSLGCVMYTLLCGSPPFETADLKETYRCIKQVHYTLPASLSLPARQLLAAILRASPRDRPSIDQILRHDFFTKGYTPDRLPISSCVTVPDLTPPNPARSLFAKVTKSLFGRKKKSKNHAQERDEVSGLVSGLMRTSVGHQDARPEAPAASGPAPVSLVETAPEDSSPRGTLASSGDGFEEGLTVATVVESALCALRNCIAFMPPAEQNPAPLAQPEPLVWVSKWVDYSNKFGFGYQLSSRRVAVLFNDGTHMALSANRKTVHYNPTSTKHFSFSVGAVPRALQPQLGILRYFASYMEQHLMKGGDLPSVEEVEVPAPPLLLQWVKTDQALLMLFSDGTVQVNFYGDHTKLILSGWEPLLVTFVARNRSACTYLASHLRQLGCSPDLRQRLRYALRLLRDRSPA", "test": "pull-down from mixed HeLa lysates, anti-Flag blot (FIG. 4B)"}, "[5]": {"molecular_target": "T2, Plk1 (endogenous, in mitotic HeLa cell …)", "test": "pull-down from mitotic HeLa lysate with bead-immobilised peptide (FIG. 4A)"}, "Flag-Plk3(K52R) [6]": {"molecular_target": "T3, Flag-Plk3(K52R)", "test": "assay not given; pull-downs of Examples 3 and 6"}, "Flag-Plk2(K607R, Y626F)": {"molecular_target": "T4, Flag-Plk2(K607R, Y626F) (UniProt Q9NYY3 1-685)", "T4 construct": "not shown: Flag tag", "T4 sequence (Q9NYY3 whole entry K607R/Y626F)": "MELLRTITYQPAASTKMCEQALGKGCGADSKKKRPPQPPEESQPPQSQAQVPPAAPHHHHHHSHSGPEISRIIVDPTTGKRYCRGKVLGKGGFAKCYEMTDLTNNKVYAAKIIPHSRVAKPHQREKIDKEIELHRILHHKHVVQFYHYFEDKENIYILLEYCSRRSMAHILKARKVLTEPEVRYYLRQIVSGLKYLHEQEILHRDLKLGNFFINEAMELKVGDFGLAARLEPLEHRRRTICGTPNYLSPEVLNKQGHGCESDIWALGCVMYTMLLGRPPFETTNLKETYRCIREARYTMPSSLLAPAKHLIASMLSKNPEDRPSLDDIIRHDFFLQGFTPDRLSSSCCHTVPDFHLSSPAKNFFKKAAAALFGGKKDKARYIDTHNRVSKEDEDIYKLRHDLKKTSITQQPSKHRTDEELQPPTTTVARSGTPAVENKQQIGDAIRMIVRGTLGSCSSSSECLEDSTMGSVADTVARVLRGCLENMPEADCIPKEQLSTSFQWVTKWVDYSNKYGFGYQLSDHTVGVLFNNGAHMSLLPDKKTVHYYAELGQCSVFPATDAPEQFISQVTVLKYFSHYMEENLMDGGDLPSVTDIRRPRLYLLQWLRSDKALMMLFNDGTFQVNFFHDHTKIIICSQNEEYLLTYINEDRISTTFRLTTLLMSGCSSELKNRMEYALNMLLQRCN", "test": "pull-down of transfected HeLa lysate with immobilised MQSpTPL (FIG. 15B)"}, "[7]": {"molecular_target": "T5, Flag-Plk2(L606F, K607R, 5608T, D609R, K610S, Y626F, H627Q) (UniProt Q9NYY3 1-685)", "T5 construct": "5608T is read as S608T; not shown: Flag tag", "T5 sequence (Q9NYY3 whole entry L606F/K607R/S608T/D609R/K610S/Y626F/H627Q)": "as the sequence (Q9NYY3 whole entry K607R/Y626F) above, with L606F, S608T, D609R, K610S, H627Q counted along it", "test": "pull-down of transfected HeLa lysate with immobilised MQSpTPL (FIG. 15B)"}}, "note": "Starred links: 1 amine or outer side, 2 acyl side, 3 side chain; linkers in the order of their positions; H or OH if unused. Non-standard residues stand in square brackets, D forms with d. No end group written: not given here. F2Pmab = 2-amino-4,4-difluoro-3-methyl-4-phosphobutanoic acid, in place of p-Thr, C[C@H]([C@H](N[*:1])C(=O)[*:2])C(F)(F)P(=O)(O)O; Abu(3R-Me,4-PO3H2) = C[C@@H](CP(=O)(O)O)[C@H](N)C(=O)O; pT = C[C@@H](OP(=O)(O)O)[C@H](N)C(=O)O", "data": [{"binder": "B1", "values": [{"measurement": "binding result", "setting": "HA-EGFP-Plk1 [1]", "result": "binds"}]}, {"binder": "B2", "values": [{"measurement": "binding result", "setting": "[2]", "result": "no binding"}, {"measurement": "binding result", "setting": "HA-EGFP-Plk1 [3]", "result": "no binding (tested: 1000-fold higher molar concentrations)"}]}, {"binder": "B3", "values": [{"measurement": "binding result", "setting": "Flag-Plk3(K52R) [4]", "result": "no binding"}]}, {"binder": "B4", "values": [{"measurement": "binding result", "setting": "[5]", "result": "no binding"}]}, {"binder": "B5", "values": [{"measurement": "binding result", "setting": "Flag-Plk3(K52R) [6]", "result": "no binding"}]}, {"binder": "B6", "values": [{"measurement": "binding result", "setting": "Flag-Plk2(K607R, Y626F)", "result": "no binding"}, {"measurement": "binding result", "setting": "[7]", "result": "no binding"}]}]}
